Reference: US20150232562A1 (Ablynx, published 2015)
Residue numbers refer to the chain shown, from its start.

B1: 11A121/1-126 (VHH)
VHH: EVQLVESGGGLVQAGGSLRLSCVVSEGTFSSYSMGWFRQAPGKDREFVSAITWNGTRTYYRDSVKGRFTISRDNAKNTVQLQMNSLKPEDTAVYYCAVSQPLNYYTYYDARRYDYWGQGTQVTVSS
notes: C-term myc-His6 tag
B2: 11A91/1-124 (VHH)
VHH: EAQLVESGGGLVQAGGSLRLSCTASGRTYSTTMGWFRQAPGKEREFVAAIRWSGGSAFYADSVKGRFTISRDNAKNTVYLQMTSLMPEDTAVYYCADTPVYYQRYYDQNAYDYWGQGTQVTVSS
notes: C-term myc-His6 tag
B3: 13G72/1-118 (VHH)
VHH: EVQLVESGGGLVQAGGSLRLSCAASGRAFSSYAMGWFRQAPGKERDFVAAITSSGSTNYADSVKGRFTISRDNAKNTVYLQMNSLKPEDTAVYYCAAKYYSYYAYDYWGQGTQVTVSS
notes: C-term myc-His6 tag
B4: 13E81/1-124 (VHH)
VHH: EVQLVESGGGLVQAGGSLRLSCAASGGTFSVYHMAWFRQAPGKEREFVAAIRSSGGLFYALSVSGRFTISRDNAKDTMYLQMNVLKPEDTAVYYCAASPVYYIDYSSQYKYGYWGQGTQVTVSS
notes: C-term myc-His6 tag
B5: 11B31/1-124 (VHH)
VHH: EVQLVESGGGLVQAGGSLRLSCAASGGAFGVYHMGWFRQAPGKEREFVAAIRSGGTTLYEDSVKGRFTISRDNAKNTVYLRMNSLKPEDTAVYYCATQIYYRTNYYSQNAYDYWGQGTQVTVSS
notes: C-term myc-His6 tag
B6: 13G81/1-124 (VHH)
VHH: B5 VHH with A28T, A50V, E60A, N73D, R81Q, Y94L, T97A, A110N
notes: C-term myc-His6 tag
B7: 14H51/1-124 (VHH)
VHH: B5 VHH with A28T, H33T, G35A, G55A, N73D, T97A, A110E
notes: C-term myc-His6 tag
B8: 21A21/1-124 (VHH)
VHH: B5 VHH with A28T, K43T, A50V, T97A, Y106S, N109S, A110N
notes: C-term myc-His6 tag
B9: 21A53/1-124 (VHH)
VHH: B5 VHH with R19E, F67V, N73D, T97A, A110V
notes: C-term myc-His6 tag
B10: 21A111/1-124 (VHH)
VHH: EVQLVESGGGLVQAGGSLKLSCAVSGRTIVPYTMAWFRQAPGKEREFVAVTRSGGTTFYADSAKGRFTIARDDAKNTVYLQMNSLKPEDTAVYYCALATAYRTNYSSRDKYDYWGQGTQVTVSS
notes: C-term myc-His6 tag
B11: 22B1212/1-122 (VHH)
VHH: EVQLVESGGGLVQPGGSLRLSCAASGFTFSSYAMSWVRQAPGKGLEWVSAINSGGGSTSYADSVKGRFTISRDNAKNTLYLQMNSLKPEDTAVYYCAKYLSFYSDYEVYDYWGQGTQVTVSS
notes: C-term myc-His6 tag
B12: 11A31/1-120 (VHH)
VHH: EVQLVESGGGLVQAGGSLRLSCAASGGTFSSGVMAWFRQSPGEEREFLALITRNGETKKTADSVKGRFTISRDNAKNGVSLQMDSLKAEDTAVYYCASDPTYGSGRWTYWGQGTQVTVSS
notes: C-term myc-His6 tag
B13: 13E51/1-128 (VHH)
VHH: EVQLVESGGGLVQAGGSLRLSCAASRHTFSGYAMGWFRQAPGKEREFVAAIRWSGGITYYADSVKGRFTISSDNAKNTVYLQMNSLKPEDTALYYCARSVTYYSGSHAYTQEGGYARWGQGTQVTVSS
notes: C-term myc-His6 tag
B14: 12D121/1-126 (VHH)
VHH: EVQLVESGGGLVQTGGSLRLSCAASGRAFSTYGMGWFRQAPGKAREFVAAISRSGTGTYYAGSMKGRFTISRDDAKNTVYLQMNSLKPEDTAVYYCAARQPYASGSHYSSTQYTYWGQGTQVTVSS
notes: C-term myc-His6 tag
B15: 13F121/1-119 (VHH)
VHH: EVQLVESGGGLVQAGGSLRLSCAASGRSFNDYTMGWFRQTPGKEREFVARVWWNGGSAYYADSVKGRFTISIDNAKNTVYLQMNNLTPEDTAVYYCAALYRGRSVYDDWGQGTQVTVSS
notes: C-term myc-His6 tag
B16: 13G121/1-127 (VHH)
VHH: EVQLVESGGGLVRAGTSLRLSCADSARTFSSAAMGWFRQAPGKEREFVSAISPIGSSKYYADSVKGRFTISRDNAKNTVYLQMDSLKPEDTAVYYCAASSYGSTYYSQGRAYYYDYWGQGTQVTVSS
notes: C-term myc-His6 tag
B17: 22B41/1-124 (VHH)
VHH: EVQLVESGGGLVQPGGSLRLSCTVFGRTFSGDVIGWFRQAPGKEREFVAAISTSGGGTDSADSVKGRFTISKENAKNTVYLQMTILKPEDTAVYYCASSPYGPLYRSTHYYDYWGQGTQVTVSS
notes: C-term myc-His6 tag
B18: 12D71/1-125 (VHH)
VHH: EVQLVESGGGLVQAGGSLGLSCAASGRTVSTMGWFRQAPGKEREFVTAITWSGDSTNFADSVKGRFTISRDSAKDTVYLQMNNLKPEDTAVYYCAATTYYSGSYISTLSTSYNYWGQGTQVTVSS
notes: C-term myc-His6 tag
B19: 13F41/1-111 (VHH)
VHH: EVQLVESGGGLVQAGGSLRLSCVASGRTLSTTGVGWFRQAPGKERESVATIFVGGTTYYSDSVKGRFTISRDNAKNAVNLQMSNLKPEDTALYYCTIGSYRGQGTQVTVSS
notes: C-term myc-His6 tag
B20: 12C101/1-111 (VHH)
VHH: B19 VHH with K75R, L80P, S83N, L92V
notes: C-term myc-His6 tag
B21: 13F42/1-111 (VHH)
VHH: B19 VHH with E44G, Y93H
notes: C-term myc-His6 tag
B22: 14H91/1-127 (VHH)
VHH: EVQLVESGGGLVQAGGSLRLSCAASGRTFSRDVMGWFRQAPGKEREFVAAKTWSGASTYYADSVRGRFTISRDNAKNAVYLQMNSLKPEDTAVYYCAARDSSTLDSTYYVGGSYNYWGRGTQVTVSS
notes: C-term myc-His6 tag
B23: 14H21/1-125 (VHH)
VHH: EVQLVESGGGLVQAGGSLRLSCVRSGGYFGSYHIGWFRQAPGNEREFVAAITWNGASTSYADSVKGRFTISRSIAENTVYLQMNKVKPEDTAVYYCAARMYGSDWLPRPEDFDSWGQGTQVTVSS
notes: C-term myc-His6 tag
B24: 22B610/1-120 (VHH)
VHH: EVQLVESGGGLVQPGGSLRLSCAASGSIFSINAMGWYRPAPGKQRELVARITSTGSTNYADSVKGRFTISRDNAKNTVYLQMNSLKPEDTAVYYCNADVSPSYGSRWYGWGQGTQVTVSS
notes: C-term myc-His6 tag
B25: 12C32/1-127 (VHH)
VHH: EMQLVESGGGLVQAGGSLRLSCATSERTFSTYTMAWFRQAPGKEREFVVAIKSSDNSTSYRDSVKGRFTISRDNAKSTMYLQMNSLKPEDTAVYYCAARREYSTIYTARYPGEYVYWGQGTQVTVSS
notes: C-term myc-His6 tag
B26: 12D61/1-116 (VHH)
VHH: EVQLVESGGGLVQPGGSLRLSCAASRSIFSPNVVGWYRQAPGKQRELVAAVTSGGITNYADSVKGRFTISRDNAKNTLYLQMNSLKAEDTAVYYCNARERGIYDSWGQGTQVTVSS
notes: C-term myc-His6 tag
B27: 13G31/1-125 (VHH)
VHH: EVQLVESGGGLVQAGGSLRLSCAASGGTFSRYKMGWFRQAPGKEREFVAASRWSGGIKYHADSVKGRFTISRDDAKNSIYLQMNTLKPEDTAVYYCAADDYLGGDNWYLGPYDSWGQGTQVTVSS
notes: C-term myc-His6 tag
B28: 22C65/1-124 (VHH)
VHH: EVQLVESGGGLVQAGGSLRLSCAVSGFLFDSYAMGWFRQAPGKEREFVAAIRWSGSATDYSDSVKGRFTISRDNAKNTVYLQMNSLIPEDTAVYYCAARKTYRSLTYYGEYDSWGQGTQVTVSS
notes: C-term myc-His6 tag
B29: 11A71/1-125 (VHH)
VHH: EVQLVESGGGLVQPGGSLRLSCAASRSIRSVSVMGWYRLAPGNQRELVATITADGITNYADSVKGRFTVSRDNGRNTVYLQMNSLKPEDTAVYYCNVDRLLYYSSGYYQTSVDVWGQGTQVTVSS
notes: C-term myc-His6 tag
B30: 11B91/1-125 (VHH)
VHH: EVQLVESGGALVQPGGSLRLSCAASGSIRSINTMGWYRQAPGNQREFVAAVTEGGTTSYAASVKGRFTISRDKAKNTVLLQMDSLKPEDTAVYYCNADRFLYYSAGRYDTGSDIWGQGTQVTVSS
notes: C-term myc-His6 tag
B31: 11A81/1-125 (VHH)
VHH: EVQLVESGGALVQPGGSLRLSCAASDSIRSINIMGWYRQAPGKQREFVAAVTEDGSINYAESVKGRFTISRDKAKNALYLQMNSLKPEDMAVYYCNADRVLYYSDSRYYTGSNYWGQGTQVTVSS
notes: C-term myc-His6 tag
B32: 11B121/1-127 (VHH)
VHH: EVQLVESGGGLVQPGGSLRLSCAASGSSASINTMGWYRQAPGEQRELVAEITEGGIINYTDSVKGRFTISRDNAKNTVYLEMNNLKPEDTAVYYCNADRALYRNYSDGRYYTGYDYWGQGTQVTVSS
notes: C-term myc-His6 tag
B33: 12D31/1-115 (VHH)
VHH: EVQLVESGGGLVQPGGSLRLSCAASRNIFDFNDMGWYRQGPGKEREFVALINVGGVAKYEDSVKGRFTISRDNAENTVYLQMNNLKPEDMAVYYCNARILSRNYWGQGNQVTVSS
notes: C-term myc-His6 tag
B34: 11B51/1-127 (VHH)
VHH: EVQLVESGGGLVQAGGSLRLSCAASGGTFSGRGMGWFRQAPGKEREFVAAVSWSGGNTYYADSVKGRFTISRDNAKSTVYLQMDSLKPEDTAVYYCAASRRFYSGLYYYTDDAYEYWGQGTQVTVSS
notes: C-term myc-His6 tag
B35: 13G51/1-127 (VHH)
VHH: EVQLVESGGGLVQAGGSLSLSCAASGGTFNGRAVGWFRQAPGEEREFVTGISWSGGSTDYADSVKGRFTISRDNSKNTVSLQMNSLKPEDTAVYYCAASRRFYSGLVYYSVDAYENWGQGTQVTVSS
notes: C-term myc-His6 tag

Each binder was assayed against T1, recombinant human ErbB2/Fc chimera (human, UniProt P04626 23-652) (assay: ELISA, coated ErbB2/Fc).
T1 construct: bought from R&D Systems; also called rhErbB2-Fc; rhErb2-Fc; Fc part of the bought chimera not given; not described

Binding result, binds:
B1
B2
B3
B4
B5
B6
B7
B8
B9
B10
B11
B12
B13
B14
B15
B16
B17
B18
B19
B20
B21
B22
B23
B24
B25
B26
B27
B28
B29
B30
B31
B32
B33
B34
B35
